The values below come from US20260042847A1 (Zymeworks, published 2026).

The target of assay [1] is T1, c-Met (UniProt P08581 25-1390, limits assumed).
T1 construct: whole, on cells; Target on cells
The experiment in a line: flow cytometry on H292 cells, apparent Kd. (In general: Flow cytometry measures light scatter and fluorescence of single cells or particles in a stream.)

The target of assay [2] is T2, Human FcRn with a C-terminal biotin on the large subunit (Human, UniProt P55899 24-297; P61769 21-119, C-terminal biotin).
T2 construct: Captured on neutravidin for SPR; also called neonatal Fc receptor
As to the kind of experiment: SPR, FcRn captured, antibody injected, pH 5.9. On the technique in general: In SPR one partner is held on a chip, and binding of the other changes the refractive index at the surface.

Assay [3] concerns the target CD16a (FcγRIIIA), allelic form F158 (UniProt P08637 17-208). As to the kind of experiment: SPR, antibody captured on Protein A, FcγR injected.
The target of assay [4] is T3, CD32a (FcγRIIA), allelic form Arg131 (UniProt P12318 36-218, limits assumed).
T3 construct: also called CD32aR
T3 sequence (looked up): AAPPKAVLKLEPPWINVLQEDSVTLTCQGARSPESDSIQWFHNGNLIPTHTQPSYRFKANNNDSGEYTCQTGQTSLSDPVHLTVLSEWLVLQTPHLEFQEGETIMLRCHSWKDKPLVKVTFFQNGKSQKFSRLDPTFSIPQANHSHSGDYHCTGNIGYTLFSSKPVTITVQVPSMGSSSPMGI
As to the kind of experiment: SPR, antibody captured on Protein A, FcγR injected.

Another assay concerns the target T4, CD32b (FcγRIIB) (UniProt P31994 43-217, limits assumed).
T4 construct: The 'Y' of CD32bY is not explained; also called CD32bY
T4 sequence (looked up): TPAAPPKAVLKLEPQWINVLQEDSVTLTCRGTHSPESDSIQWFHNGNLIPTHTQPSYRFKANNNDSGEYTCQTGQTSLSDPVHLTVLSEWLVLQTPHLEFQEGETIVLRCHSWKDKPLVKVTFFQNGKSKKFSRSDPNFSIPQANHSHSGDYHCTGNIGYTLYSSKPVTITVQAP
The experiment in a line: SPR, antibody captured on Protein A, FcγR injected.

Assay [5] concerns the target T5, CD16a (FcγRIIIA), allelic form V158 (UniProt P08637 17-208).
T5 construct: also called CD16aV
As to the kind of experiment: SPR, antibody captured on Protein A, FcγR injected.

In a further assay the target is CD64a (FcγRI) (UniProt P12314 16-288, limits assumed). As to the kind of experiment: SPR, antibody captured on Protein A, FcγR injected.
Assay [6] addresses T6, CD32a (FcγRIIA), allelic form His131 (UniProt P12318 36-218, limits assumed).
T6 construct: also called CD32aH
T6 sequence (looked up): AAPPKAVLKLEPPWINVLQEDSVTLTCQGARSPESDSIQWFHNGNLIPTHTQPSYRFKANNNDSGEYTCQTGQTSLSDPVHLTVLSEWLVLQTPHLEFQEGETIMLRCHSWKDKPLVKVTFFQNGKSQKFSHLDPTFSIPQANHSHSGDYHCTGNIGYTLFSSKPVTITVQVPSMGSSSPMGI
As to the kind of experiment: SPR, antibody captured on Protein A, FcγR injected.

In assay [7] the target is T1, c-Met. As to the kind of experiment: flow cytometry on BT-20 cells, apparent Kd.
Assay [8] concerns the target T1, c-Met. The experiment in a line: flow cytometry on EBC-1 cells, apparent Kd.
For assay [9], the target named is T1, c-Met. The experiment in a line: flow cytometry on EBC-1 cells, apparent Kd. This is another data set of the same source.
For assay [10], the target named is T1, c-Met. The experiment in a line: flow cytometry on EBC-1 cells.

T1 sequence (P08581 25-1390 limits assumed): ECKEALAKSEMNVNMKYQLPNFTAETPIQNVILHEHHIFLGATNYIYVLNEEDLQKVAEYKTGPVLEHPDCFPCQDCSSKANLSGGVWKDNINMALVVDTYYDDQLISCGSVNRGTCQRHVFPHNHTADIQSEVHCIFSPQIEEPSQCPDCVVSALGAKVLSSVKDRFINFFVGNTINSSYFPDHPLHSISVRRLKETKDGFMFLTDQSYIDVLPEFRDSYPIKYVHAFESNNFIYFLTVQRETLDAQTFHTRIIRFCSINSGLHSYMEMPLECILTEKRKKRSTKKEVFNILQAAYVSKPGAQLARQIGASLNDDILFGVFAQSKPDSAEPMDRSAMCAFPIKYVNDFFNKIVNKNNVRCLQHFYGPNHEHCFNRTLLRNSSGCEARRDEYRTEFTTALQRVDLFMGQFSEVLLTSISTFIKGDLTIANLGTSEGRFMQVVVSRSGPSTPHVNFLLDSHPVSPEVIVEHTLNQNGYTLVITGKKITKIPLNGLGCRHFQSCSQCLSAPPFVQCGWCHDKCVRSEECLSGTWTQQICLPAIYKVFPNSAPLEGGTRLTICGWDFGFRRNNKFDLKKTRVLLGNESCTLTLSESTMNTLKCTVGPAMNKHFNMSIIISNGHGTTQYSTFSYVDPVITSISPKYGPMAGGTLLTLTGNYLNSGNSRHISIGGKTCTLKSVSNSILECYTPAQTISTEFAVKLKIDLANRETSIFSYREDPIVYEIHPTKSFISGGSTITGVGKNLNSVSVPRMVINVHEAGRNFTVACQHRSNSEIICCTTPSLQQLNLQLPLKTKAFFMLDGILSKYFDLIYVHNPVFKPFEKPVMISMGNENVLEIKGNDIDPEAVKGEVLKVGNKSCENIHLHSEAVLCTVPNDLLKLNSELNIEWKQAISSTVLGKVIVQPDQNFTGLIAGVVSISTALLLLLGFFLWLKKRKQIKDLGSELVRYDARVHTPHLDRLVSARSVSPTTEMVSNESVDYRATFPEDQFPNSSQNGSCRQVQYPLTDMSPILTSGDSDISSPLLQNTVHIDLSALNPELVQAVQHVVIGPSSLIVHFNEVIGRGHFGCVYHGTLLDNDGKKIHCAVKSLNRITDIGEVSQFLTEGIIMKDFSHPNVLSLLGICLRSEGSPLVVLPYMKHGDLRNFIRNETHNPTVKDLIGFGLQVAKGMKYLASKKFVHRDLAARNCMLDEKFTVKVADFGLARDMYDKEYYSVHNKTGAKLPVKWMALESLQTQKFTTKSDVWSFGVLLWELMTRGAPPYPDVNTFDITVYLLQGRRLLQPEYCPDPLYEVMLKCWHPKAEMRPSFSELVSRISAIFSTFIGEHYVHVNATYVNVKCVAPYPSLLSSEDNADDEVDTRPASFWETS
T2 sequence (P55899 24-297 limits assumed, chain 1 of 2): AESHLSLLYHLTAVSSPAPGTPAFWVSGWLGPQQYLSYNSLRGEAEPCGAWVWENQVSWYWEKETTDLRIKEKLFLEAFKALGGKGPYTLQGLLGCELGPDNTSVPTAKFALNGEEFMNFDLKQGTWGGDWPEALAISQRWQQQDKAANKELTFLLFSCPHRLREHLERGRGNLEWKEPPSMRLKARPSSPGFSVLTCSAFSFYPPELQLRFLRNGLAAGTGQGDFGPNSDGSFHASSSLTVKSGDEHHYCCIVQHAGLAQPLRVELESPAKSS
T2 sequence (P61769 21-119 limits assumed, chain 2 of 2): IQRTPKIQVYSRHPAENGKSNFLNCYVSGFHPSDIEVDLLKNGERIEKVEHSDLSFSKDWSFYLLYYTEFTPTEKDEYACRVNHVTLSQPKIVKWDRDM
Sequence of CD64a (FcγRI) (P12314 16-288 limits assumed): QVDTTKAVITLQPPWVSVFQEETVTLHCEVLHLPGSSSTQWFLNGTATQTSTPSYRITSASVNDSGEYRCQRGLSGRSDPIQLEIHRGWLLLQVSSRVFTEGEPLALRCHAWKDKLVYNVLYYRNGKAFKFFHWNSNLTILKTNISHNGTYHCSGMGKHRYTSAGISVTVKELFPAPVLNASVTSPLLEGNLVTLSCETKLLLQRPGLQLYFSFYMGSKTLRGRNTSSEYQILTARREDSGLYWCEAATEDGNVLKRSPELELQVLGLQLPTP
Sequence of CD16a (FcγRIIIA), allelic form F158 (P08637 17-208 limits assumed): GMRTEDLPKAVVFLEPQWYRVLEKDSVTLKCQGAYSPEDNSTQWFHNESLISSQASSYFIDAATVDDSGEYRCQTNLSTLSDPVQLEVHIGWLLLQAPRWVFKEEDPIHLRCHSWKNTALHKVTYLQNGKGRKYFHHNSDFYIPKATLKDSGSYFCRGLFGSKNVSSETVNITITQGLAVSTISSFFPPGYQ
T5 sequence (P08637 17-208 F176V limits assumed): as the sequence (P08637 17-208 limits assumed) above, with F160V counted along it

B1: v17427 (antibody)
chain 1: QVQLVQSGAEVKKPGASVKVSCKASGYIFTAYTMHWVRQAPGQGLEWMGWIKPNNGLANYAQKFQGRVTMTRDTSISTAYMELSRLRSDDTAVYYCARSEITTEFDYWGQGTLVTVSSASTKGPSVFPLAPSSKSTSGGTAALGCLVKDYFPEPVTVSWNSGALTSGVHTFPAVLQSSGLYSLSSVVTVPSSSLGTQTYICNVNHKPSNTKVDKKVEPKSCDKTHTCPPCPAPELLGGPSVFLFPPKPKDTLMISRTPEVTCVVVDVSHEDPEVKFNWYVDGVEVHNAKTKPREEQYNSTYRVVSVLTVLHQDWLNGKEYKCKVSNKALPAPIEKTISKAKGQPREPQVYVYPPSRDELTKNQVSLTCLVKGFYPSDIAVEWESNGQPENNYKTTPPVLDSDGSFALVSKLTVDKSRWQQGNVFSCSVMHEALHNHYTQKSLSLSPG
chain 2: not shown
chain 3: not shown
For the molecule B1, the Kd is 0.02 nM in the assay with c-Met [1]; 297 nM in assay [2]; 1450 nM in [3]; 588 nM in [4]; 2630 nM with CD32b (FcγRIIB); 461 nM in assay [5]. Besides, the Kd with CD64a (FcγRI) is 0.0486 nM; in [6], 410 nM; with c-Met [7], 0.02 nM; in the assay with c-Met [8], 0.1 nM; in the assay with c-Met [9] it was 0.14 nM.

B2: v29001 (antibody)
chain 1: QVQLVQSGAEVKKPGASVKVSCKASGYIFTAYTMHWVRQAPGQGLEWMGWIKPNNGLANYAQKFQGRVTMTRDTSISTAYMELSRLRSDDTAVYYCARSEITTEFDYWGQGTLVTVSSASTKGPSVFPLAPSSKSTSGGTAALGCLVKDYFPEPVTVSWNSGALTSGVHTFPAVLQSSGLYSLSSVVTVPSSSLGTQTYICNVNHKPSNTKVDKKVEPKSCDKTHTCPPCPAPELLGGPSVFLFPPKPKDTLMISRTPEVTCVVVDVSHEDPEVKFNWYVDGVEVHNAKTKPREEQYNSTCYRVVSVLTVLHQDWLNGKEYKCKVSNKALPAPIEKTISKAKGQPREPQVYVYPPSRDELTKNQVSLTCLVKGFYPSDIAVEWESNGQPENNYKTTPPVLDSDGSFALVSKLTVDKSRWQQGNVFSCSVMHEALHNHYTQKSLSLSPG
chain 2: QVQLVQSGAEVKKPGASVKVSCKASGYIFTAYTMHWVRQAPGQGLEWMGWIKPNNGLANYAQKFQGRVTMTRDTSISTAYMELSRLRSDDTAVYYCARSEITTEFDYWGQGTLVTVSSASTKGPSVFPLAPSSKSTSGGTAALGCLVKDYFPEPVTVSWNSGALTSGVHTFPAVLQSSGLYSLSSVVTVPSSSLGTQTYICNVNHKPSNTKVDKKVEPKSCDKTHTCPPCPAPELLGGPSVFLFPPKPKDTLMISRTPEVTCVVVDVSHEDPEVKFNWYVDGVEVHNAKTKPREEQYNSTCYRVVSVLTVLHQDWLNGKEYKCKVSNKALPAPIEKTISKAKGQPREPQVYVLPPSRDELTKNQVSLLCLVKGFYPSDIAVEWESNGQPENNYLTWPPVLDSDGSFFLYSKLTVDKSRWQQGNVFSCSVMHEALHNHYTQKSLSLSPG
chain 3: not shown
Turning to B2, the figures for the Kd (in [2]; with CD64a (FcγRI); with c-Met [8]) were 208 nM, 143 nM and 0.57 nM, respectively. In addition, the “fold greater Kd against control v17427” value with c-Met [10] turned out to be 5 fold.
